Test results published in patent US20200368361A1 (Regeneron, published 2020).

T1: full length monkey MSR1 on HEK293.mfMSR1 cells (Macaca fascicularis, UniProt A0A2K5UWE2 1-451)
T1 construct: whole, on cells; also called mfMSR1 engineered cells
T1 sequence: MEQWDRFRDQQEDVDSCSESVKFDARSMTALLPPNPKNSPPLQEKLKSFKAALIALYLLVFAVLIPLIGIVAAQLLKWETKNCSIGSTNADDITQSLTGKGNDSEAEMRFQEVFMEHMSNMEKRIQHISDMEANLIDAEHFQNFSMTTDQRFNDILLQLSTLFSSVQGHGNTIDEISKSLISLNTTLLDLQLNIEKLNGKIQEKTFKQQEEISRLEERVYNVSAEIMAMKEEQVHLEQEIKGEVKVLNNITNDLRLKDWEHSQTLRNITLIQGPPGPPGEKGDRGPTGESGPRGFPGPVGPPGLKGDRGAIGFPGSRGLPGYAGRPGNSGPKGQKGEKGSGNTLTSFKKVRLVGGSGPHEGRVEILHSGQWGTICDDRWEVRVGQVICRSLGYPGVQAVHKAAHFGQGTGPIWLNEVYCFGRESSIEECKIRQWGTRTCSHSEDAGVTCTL

T2: monkey MSR1 extracellular domain expressed with a N-terminal hexahistidine-myc-myc tag (HMM-mfMSR1) (monkey (Macaca fascicularis))
T2 chain: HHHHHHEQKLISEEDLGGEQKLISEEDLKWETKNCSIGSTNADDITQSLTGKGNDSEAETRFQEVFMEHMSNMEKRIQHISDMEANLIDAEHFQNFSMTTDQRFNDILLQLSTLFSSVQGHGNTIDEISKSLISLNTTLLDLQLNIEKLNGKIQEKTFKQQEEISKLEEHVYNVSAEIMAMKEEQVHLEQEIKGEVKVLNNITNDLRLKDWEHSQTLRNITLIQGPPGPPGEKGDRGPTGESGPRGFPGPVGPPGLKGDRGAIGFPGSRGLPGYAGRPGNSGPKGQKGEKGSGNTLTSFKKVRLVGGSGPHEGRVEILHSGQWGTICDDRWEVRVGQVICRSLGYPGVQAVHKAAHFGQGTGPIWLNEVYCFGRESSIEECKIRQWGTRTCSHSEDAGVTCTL

T3: human MSR1 extracellular domain expressed with a N-terminal nonahistidine tag (His9-hMSR1); R&D Systems, Cat … (human, UniProt P21757 77-451)
T3 construct: extracellular domain; Bought protein; also called His-hMSR1
T3 sequence: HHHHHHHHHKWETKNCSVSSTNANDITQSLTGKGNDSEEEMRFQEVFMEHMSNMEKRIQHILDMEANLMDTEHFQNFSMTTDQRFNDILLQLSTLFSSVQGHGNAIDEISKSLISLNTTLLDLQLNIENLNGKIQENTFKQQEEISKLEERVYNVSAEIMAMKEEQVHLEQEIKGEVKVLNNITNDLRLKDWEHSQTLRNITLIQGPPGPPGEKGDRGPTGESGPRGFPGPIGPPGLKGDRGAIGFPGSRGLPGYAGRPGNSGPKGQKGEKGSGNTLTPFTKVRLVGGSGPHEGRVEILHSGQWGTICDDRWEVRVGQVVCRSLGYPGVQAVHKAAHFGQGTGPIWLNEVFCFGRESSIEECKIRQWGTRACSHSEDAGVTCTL

T4: monkey MSR1 extracellular domain expressed with a N-terminal hexahistidine-myc-myc tag (monkey (Macaca fascicularis))
T4 construct: also called HMM-mfMSR1
T4 chain: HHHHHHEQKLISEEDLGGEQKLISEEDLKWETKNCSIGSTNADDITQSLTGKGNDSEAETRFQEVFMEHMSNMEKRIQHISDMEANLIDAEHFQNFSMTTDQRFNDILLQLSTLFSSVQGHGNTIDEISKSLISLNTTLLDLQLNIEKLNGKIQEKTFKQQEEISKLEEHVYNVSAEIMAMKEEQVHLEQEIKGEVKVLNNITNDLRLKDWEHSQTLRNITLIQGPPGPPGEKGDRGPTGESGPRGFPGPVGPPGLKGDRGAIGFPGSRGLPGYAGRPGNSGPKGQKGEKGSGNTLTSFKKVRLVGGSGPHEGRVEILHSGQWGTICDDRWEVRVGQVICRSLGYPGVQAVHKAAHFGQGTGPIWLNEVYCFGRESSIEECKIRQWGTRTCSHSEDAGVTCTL

T5: human MSR1 extracellular domain expressed with a N-terminal nonahistidine tag (human, UniProt P21757 77-451)
T5 construct: extracellular domain; Bought reagent; also called His9-hMSR1
T5 sequence: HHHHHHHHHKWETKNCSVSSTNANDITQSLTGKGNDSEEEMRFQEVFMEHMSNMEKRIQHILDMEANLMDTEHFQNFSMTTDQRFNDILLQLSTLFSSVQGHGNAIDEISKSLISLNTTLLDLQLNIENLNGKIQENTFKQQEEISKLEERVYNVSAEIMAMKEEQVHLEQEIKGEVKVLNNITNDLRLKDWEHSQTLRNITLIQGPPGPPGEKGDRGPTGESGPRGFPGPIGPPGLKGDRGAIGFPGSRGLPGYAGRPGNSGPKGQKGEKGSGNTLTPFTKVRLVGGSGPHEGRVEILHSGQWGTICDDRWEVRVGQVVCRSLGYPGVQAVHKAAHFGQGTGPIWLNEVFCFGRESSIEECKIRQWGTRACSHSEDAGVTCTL

T6: full length monkey MSR1 on HEK293.mfMSR1 cells (Macaca fascicularis, UniProt A0A2K5UWE2 1-451)
T6 construct: whole, on cells
T6 sequence: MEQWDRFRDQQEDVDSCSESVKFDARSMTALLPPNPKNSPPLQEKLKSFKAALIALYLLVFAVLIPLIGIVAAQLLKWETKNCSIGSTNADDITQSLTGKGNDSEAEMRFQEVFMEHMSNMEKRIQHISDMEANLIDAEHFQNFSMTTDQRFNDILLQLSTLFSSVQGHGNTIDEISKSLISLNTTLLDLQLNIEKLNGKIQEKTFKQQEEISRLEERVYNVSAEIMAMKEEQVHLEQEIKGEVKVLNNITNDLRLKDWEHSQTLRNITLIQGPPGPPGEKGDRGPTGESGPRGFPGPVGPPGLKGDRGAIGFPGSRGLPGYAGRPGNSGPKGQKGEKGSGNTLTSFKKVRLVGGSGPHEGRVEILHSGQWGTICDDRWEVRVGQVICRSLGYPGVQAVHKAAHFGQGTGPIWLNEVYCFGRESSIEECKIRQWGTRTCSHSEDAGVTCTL

T7: full length human MSR1 with a C-terminal Myc tag on HEK293.Myc.hMSR1 cells (human, UniProt P21757 1-451)
T7 construct: whole, on cells
T7 sequence (looked up): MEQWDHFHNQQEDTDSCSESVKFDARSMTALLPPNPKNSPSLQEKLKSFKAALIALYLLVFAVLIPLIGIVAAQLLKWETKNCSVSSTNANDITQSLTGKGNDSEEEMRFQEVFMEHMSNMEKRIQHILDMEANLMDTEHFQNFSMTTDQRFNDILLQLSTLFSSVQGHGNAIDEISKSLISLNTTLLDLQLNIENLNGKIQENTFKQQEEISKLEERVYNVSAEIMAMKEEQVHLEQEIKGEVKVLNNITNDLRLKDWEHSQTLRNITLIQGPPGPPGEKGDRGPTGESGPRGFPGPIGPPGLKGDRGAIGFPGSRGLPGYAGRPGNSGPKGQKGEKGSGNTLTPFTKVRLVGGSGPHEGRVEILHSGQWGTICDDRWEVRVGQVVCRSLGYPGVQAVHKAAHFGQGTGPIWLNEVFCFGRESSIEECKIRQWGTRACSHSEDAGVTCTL

T8: mouse MSR1 on RAW264.7 cells (mouse, UniProt P30204 1-458)
T8 construct: whole, on cells
T8 sequence (looked up): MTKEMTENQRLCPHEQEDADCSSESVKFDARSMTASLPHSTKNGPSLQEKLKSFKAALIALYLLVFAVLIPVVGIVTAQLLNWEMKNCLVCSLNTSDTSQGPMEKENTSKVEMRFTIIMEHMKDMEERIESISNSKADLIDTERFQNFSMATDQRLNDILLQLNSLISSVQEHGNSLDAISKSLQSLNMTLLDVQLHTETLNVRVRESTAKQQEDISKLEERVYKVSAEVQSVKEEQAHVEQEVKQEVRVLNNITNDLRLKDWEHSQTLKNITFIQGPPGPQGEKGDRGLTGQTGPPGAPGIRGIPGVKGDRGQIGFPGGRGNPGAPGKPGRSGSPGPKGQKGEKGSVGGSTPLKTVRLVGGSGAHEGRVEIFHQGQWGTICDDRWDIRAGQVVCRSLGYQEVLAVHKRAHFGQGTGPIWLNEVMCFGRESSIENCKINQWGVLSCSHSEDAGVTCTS


Columns and labels:
[1] = molecular target: T1, full length monkey MSR1 on …; assay: ECL cell binding (Meso Scale), ratio to isotype control compared with parental HEK293
[2] = molecular target: T2, monkey MSR1 extracellular domain …; assay: SPR Biacore, 25C, mAb captured by anti-human Fc, MSR1 as analyte; calculated from kd fixed at 1.00E-05
Procedure: (§1) Binding affinities and kinetic constants of human anti-MSR1 antibodies for different MSR1 reagents were determined by real-time surface plasmon resonance (Biacore 4000). All binding studies were performed in 10 mM HEPES, 150 mM NaCl, 3 mM EDTA, and 0.05% v/v Surfactant Tween-20, pH 7.4 (HBS-ET) running buffer at 25° C. and 37° C.
(§2) The association rate (kₐ) and dissociation rate (kd) were determined by fitting the real-time binding sensorgrams to a 1:1 binding model with mass transport limitation using Scrubber 2.0 c curve-fitting software.

[3] = molecular target: T3, human MSR1 extracellular domain …; assay: as above
Procedure: as §1, §2

[4] = molecular target: T4, monkey MSR1 extracellular domain …; assay: SPR 37C, mAb captured; no dissociation seen, kd fixed
Procedure: as §1, §2

[5] = molecular target: T5, human MSR1 extracellular domain …; assay: as above
Procedure: as §1, §2

[6] = molecular target: T6, full length monkey MSR1 on …; assay: ECL cell binding, HEK293.mfMSR1
Procedure: (§3) All cells were washed once with 1×PBS with Ca²⁺/Mg²⁺ and counted with a Cellometer™ Auto T4 cell counter (Nexcelom Bioscience). Approximately 1.0×10⁴ cells were seeded separately onto 96-well carbon electrode plates [MULTI-ARRAY high bind plate, Meso Scale Diagnostics] and incubated for 1 hour at 37° C. Non-specific binding sites were then blocked by 2% BSA (w/v) in PBS with Ca²⁺/Mg²⁺ for 1 hour at room temperature. THP-1 cells were pre-incubated for 0.5 hours at room temperature in sample dilution buffer with: 1) 1 mg/mL Fc receptor block reagents to block Fc gamma receptors on THP-1 cell surface [whole molecule human IgG (Jackson Immunoresearch, Cat #009-000-003) for wells being tested with anti-MSR1-mFc antibodies or 2) whole molecule mIgG (Jackson Immunoresearch, Cat #015-000-003) for wells being tested with anti-MSR1-hFc antibodies. Antibody binding on HEK293.Myc.hMSR1, HEK293.mfMSR1 and HEK293 cells was tested without Fc receptor block reagents. […] Plates were then washed to remove unbound antibodies an AquaMax2000 plate washer with a cell washing head (MDS Analytical Technologies). […] Plates were washed and developed with Read Buffer (Meso Scale Diagnostics, Cat #R92TD-2) according to manufacturer's recommended procedure and luminescent signals were recorded with a SECTOR Imager 600 (Meso Scale Diagnostics). Luminescence intensity, measured in relative light units (RLU), was recorded to indicate the binding intensity of each antibody at the range of concentrations.

[7] = molecular target: T7, full length human MSR1 with a …; assay: ECL cell binding, HEK293.Myc.hMSR1
Procedure: as §3

[8] = molecular target: T8, mouse MSR1 on RAW264.7 cells; assay: flow cytometry, RAW264.7 cells, 10 ug/mL;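 also: antibodies bound to RAW264.7 cells for 30 min on ice after Fc block with mouse IgG, S/N is MFI relative to unstained cells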
Procedure: To block binding to Fc receptors, RAW264.7 cells were incubated for 30 minutes at 4° C. with 500 μg/mL mouse IgG (Jackson ImmunoResearch, Cat #015-000-003) diluted in staining buffer, while B16F10.9 cells remained in staining buffer. Following Fc receptor blocking, 10 μg/mL of anti-MSR1 antibodies or an isotype control antibody were added to the cells and were subsequently incubated for 30 minutes on ice. […] The signal to noise (S/N) was determined by calculating the ratio of the anti-MSR1 antibodies or the control antibodies MFI to the unstained sample MFI (Table 16).

Row | Binder | binding result [1] | t½ [2] | t½ [3] | Kd [4] | Kd [5] | binding signal ratio to isotype control (11 nM) [6] | binding signal ratio to isotype control (11 nM) [7] | MFI [8] | S/N [8]
1 | H1xH29273P2 (antibody, V domains shown, The H1xH prefix is not explained for the anti-MSR1 antibodies; Fc form as tested not clear) VH: QVQLVESGGGVVQSGRSLRLSCAAAGFTFSNYGMHWVRQAPGKGLEWVALMSFDGSDKYYADSVKGRFTISRDNSKNTLYLQMNSLRAEDTALYYCAKGYDFWSGYWDYWGQGTLVTVSS VL: not shown | no binding (tested: 11 nM) | – | – | – | – | – | – | – | –
2 | H1H21234N (antibody, V domains shown, original human IgG1 Fc (no N297 mutation)) VH: QVQLQESGPGLVKPSETLSLTCTVTGGSISRNYWSWIRQPPGKGLEWIGYIYYSGSIDYNPSLKSRVTISVDTSKNQFSLKLSSMTAADTAVYYCARDRWNWKYGMDVWGQGTTVIVSS VL: EIVLTQSPGTLSLSPGERATLSCRASQTVRNNYLAWYHQKPGQAPRLLIYGASSRATGIPDRFSGSGSGTDFTLTISRLEPEDFTVYYCHQYGNSPWTFGQGTKMEIKR | – | 19.2 h | 19.2 h | – | – | – | – | – | –
3 | H1H21234N (antibody, human IgG1, V domains shown, original human IgG1 Fc) VH: QVQLQESGPGLVKPSETLSLTCTVTGGSISRNYWSWIRQPPGKGLEWIGYIYYSGSIDYNPSLKSRVTISVDTSKNQFSLKLSSMTAADTAVYYCARDRWNWKYGMDVWGQGTTVIVSS VL: EIVLTQSPGTLSLSPGERATLSCRASQTVRNNYLAWYHQKPGQAPRLLIYGASSRATGIPDRFSGSGSGTDFTLTISRLEPEDFTVYYCHQYGNSPWTFGQGTKMEIKR | – | – | – | ≤ 0.0138 nM | ≤ 0.0148 nM | 31 fold | 32 fold | – | –
4 | H1H21234N-N297Q (antibody, human IgG1, V domains shown, human IgG1 Fc with N297Q) VH: QVQLQESGPGLVKPSETLSLTCTVTGGSISRNYWSWIRQPPGKGLEWIGYIYYSGSIDYNPSLKSRVTISVDTSKNQFSLKLSSMTAADTAVYYCARDRWNWKYGMDVWGQGTTVIVSS VL: EIVLTQSPGTLSLSPGERATLSCRASQTVRNNYLAWYHQKPGQAPRLLIYGASSRATGIPDRFSGSGSGTDFTLTISRLEPEDFTVYYCHQYGNSPWTFGQGTKMEIKR | – | – | – | ≤ 0.0133 nM | ≤ 0.0127 nM | 35 fold | 43 fold | 7050 | 3
